Target: T1, OmpA ( (endogenous in the host …, UniProt P0A910 22-346))
T1 construct: OmpA, outer membrane protein; source: endogenous, in cells / DDM-solubilized membrane fraction
T1 sequence (looked up): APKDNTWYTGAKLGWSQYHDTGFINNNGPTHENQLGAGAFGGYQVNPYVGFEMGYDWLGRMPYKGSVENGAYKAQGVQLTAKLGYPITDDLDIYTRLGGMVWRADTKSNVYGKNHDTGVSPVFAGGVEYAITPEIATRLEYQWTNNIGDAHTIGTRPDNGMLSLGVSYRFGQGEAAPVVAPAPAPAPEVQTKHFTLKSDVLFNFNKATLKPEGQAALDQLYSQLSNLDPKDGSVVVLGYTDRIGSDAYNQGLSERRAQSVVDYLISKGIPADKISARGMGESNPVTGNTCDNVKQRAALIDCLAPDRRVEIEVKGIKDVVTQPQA
Test: cross-linking; in vivo formaldehyde crosslinking; OM version of RcsF variants with endogenous OmpA (and BamA); immunoblot of whole cell lysates probed with α-RcsF, RcsF/OmpA band quantified relative to the WT
Details: partners not purified

B1: RcsF(A55V), OM version (natural protein, UniProt P69411 16-134, looked up)
chain: CSMLSRSPVEPVQSTAPQPKAEPAKPKAPRATPVRIYTNVEELVGKPFRDLGEVSGDSCQASNQDSPPSIPTARKRMQINASKMKANAVLLHSCEVTSGTPGCYRQAVCIGSALNITAK
modifications: lipidated N-terminal cysteine (residue 16)
notes: RcsF, sensory outer membrane lipoprotein; mature RcsF = residues 16-134 (NTD 16-48, CTD 49-134); also called GOF[OM] variant; source: expressed from the low copy number vector pZS21 in a ΔrcsF strain; in cells
percent decrease of RcsF/OmpA complex relative to WT: 50%
